Laboratory results published in patent US20250243289A1 (PROMETHEUS BIOSCIENCES, published 2025).
Positions count from the first letter of the chain named. Names and notes keep the numbering of the source. Values joined by “and” are separate entries in the source; they are usually repeats but may differ in a detail not shown here. Identical values can stand only once. Each block holds one binder with its values, some of them ahead of it.

Columns and labels:
[1] = biological target: T1, recombinant human TL1A protein (tumor necrosis factor-like cytokine 1A) (human, UniProt O95150 72-251); test: cell-based or functional assay
T1 sequence (looked up): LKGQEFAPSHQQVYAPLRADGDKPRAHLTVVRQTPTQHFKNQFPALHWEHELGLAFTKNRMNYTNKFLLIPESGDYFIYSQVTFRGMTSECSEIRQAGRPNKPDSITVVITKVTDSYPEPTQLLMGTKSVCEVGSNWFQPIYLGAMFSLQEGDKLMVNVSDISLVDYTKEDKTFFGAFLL

[2] = biological target: monkey TL1A in the in vitro monkey whole blood IFN-γ assay (monkey); test: cell-based or functional assay
[3] = biological target: T2, recombinant cynomolgus monkey TL1A protein (cynomolgus monkey, UniProt G7PRK8 72-251); test: cell-based or functional assay
T2 sequence: T1 sequence (looked up) with F39L, I78V

[4] = biological target: T3, human TL1A, endogenous in human whole blood (human, UniProt O95150 72-251, limits assumed); test: cell-based or functional assay
T3 sequence (looked up): T1 sequence (looked up)

[5] = biological target: T4, recombinant TL1A antigen (UniProt O95150 72-251, limits assumed); test: ELISA titration against recombinant TL1A antigen
T4 sequence (looked up): T1 sequence (looked up)

B2: A147 (antibody, human IgG1, V domains shown)
VH: QVQLVQSGAEVKKPGASVKVSCKASGFDIQDTYMHWVKQRPGQGLEWMGRIEPASGHIKYDPKFQGRVTMTRDTSTSTVYMELSSLRSEDTAVYYCARSGGLPDWWGQGTTVTVSS
VL: EIVLTQSPGTLSLSPGERATLSCRASSSVSYMYWYQQKPGQAPRPLIYATSNLASGIPDRFSGSGSGTDFTLTISRLEPEDFAVYYCQQWEGNPRTFGGGTKLEIK
% Inhibition at 1 nM Ig (interferon gamma release in human blood) [4]: 51.3%
% Inhibition at 10 nM Ig (interferon gamma release in human blood) [4]: 72.4%

B3: A212 (antibody, human IgG1, V domains shown)
VH: QVQLVQSGAEVKKPGASVKVSCKASGFDIQDTYMHWVRQRPGQGLEWIGRIDPASGHTKYDPKFQVRATITTDTSTSTAYLELSSLRSEDTAVYYCARSGGLPDVWGQGTTVTVSS
VL: B2 VL
% Inhibition at 1 nM Ig (interferon gamma release in human blood) [4]: 46.8%
% Inhibition at 10 nM Ig (interferon gamma release in human blood) [4]: 71.2%

B4: A217 (antibody, human IgG1, V domains shown)
VH: B2 VH with E52D, I58T, G66V, M70I, W105V
VL: B2 VL
% Inhibition at 1 nM Ig (interferon gamma release in human blood) [4]: 46%
% Inhibition at 10 nM Ig (interferon gamma release in human blood) [4]: 72.2%

B5: A213 (antibody, human IgG1, V domains shown)
VH: B3 VH with I48M, A68V, A79V, L81M
VL: B2 VL
% Inhibition at 1 nM Ig (interferon gamma release in human blood) [4]: 48.6%
% Inhibition at 10 nM Ig (interferon gamma release in human blood) [4]: 69.8%

More lines, main results first:

IC50 of the in vitro monkey whole blood IFN-γ release assay [2]: 1.54 nM and 289 ng/mL
inhibition of monkey TL1A-induced caspase activation in TF-1 cells (IC50) [3]: 0.59 nM
inhibition of the IFN-γ response in monkey whole blood stimulated with immune complex, IL-12 and IL-18 (mean IC50) [3]: 1.54 nM and 289 ng/ml
B1: anti-TL1A antibody A219 (antibody, V domains shown)
VH: B3 VH with R38K, I48M, A68V, T72R, A79V
VL: B2 VL
inhibition of human TL1A-induced caspase activation in TF-1 cells (IC50) [1]: 0.27 nM

% Inhibition at 1 nM Ig (interferon gamma release in human blood) [4]: 36.9%
% Inhibition at 10 nM Ig (interferon gamma release in human blood) [4]: 63.2%
B6: A220 (antibody, human IgG1, V domains shown)
VH: B3 VH with R38K, I48M, A68V, I70M, T72R
VL: B2 VL with L46W

% Inhibition at 1 nM Ig (interferon gamma release in human blood) [4]: 59.8%
% Inhibition at 10 nM Ig (interferon gamma release in human blood) [4]: 75.2%
B7: A219 (antibody, V domains shown)
VH: B3 VH with R38K, I48M, A68V, T72R, A79V
VL: B2 VL

EC50 [5]: 0.324 nM
B8: anti-TL1A antibody with heavy chain SEQ ID NO: 379 (S228P, L235E) and light chain SEQ ID NO: 381 (antibody, human IgG4 S228P, kappa)
heavy: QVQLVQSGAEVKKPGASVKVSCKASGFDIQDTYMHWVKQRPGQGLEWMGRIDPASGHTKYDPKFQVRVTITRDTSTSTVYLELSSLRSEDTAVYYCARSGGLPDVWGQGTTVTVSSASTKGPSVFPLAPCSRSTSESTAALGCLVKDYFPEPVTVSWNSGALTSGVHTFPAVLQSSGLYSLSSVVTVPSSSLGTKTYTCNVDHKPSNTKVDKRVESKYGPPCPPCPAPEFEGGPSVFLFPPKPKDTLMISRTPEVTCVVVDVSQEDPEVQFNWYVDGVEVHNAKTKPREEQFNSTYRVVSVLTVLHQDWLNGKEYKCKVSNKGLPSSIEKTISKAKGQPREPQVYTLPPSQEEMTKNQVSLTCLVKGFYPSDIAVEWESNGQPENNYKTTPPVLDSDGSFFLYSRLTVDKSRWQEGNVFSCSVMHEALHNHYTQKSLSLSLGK
light: EIVLTQSPGTLSLSPGERATLSCRASSSVSYMYWYQQKPGQAPRPLIYATSNLASGIPDRFSGSGSGTDFTLTISRLEPEDFAVYYCQQWEGNPRTFGGGTKLEIKRTVAAPSVFIFPPSDEQLKSGTASVVCLLNNFYPREAKVQWKVDNALQSGNSQESVTEQDSKDSTYSLSSTLTLSKADYEKHKVYACEVTHQGLSSPVTKSFNRGEC
notes: IgG4
